Test results published in patent US20110091994A1, “Methods for Screening Compounds for Treating and/or Preventing an Hepatitis C Virus Infection” (priority 2008, published 2011).
Like-named read-outs stand apart in the source and are kept apart here.

B1: NAP1L1 (protein, UniProt P55209 2-388, looked up)
Nucleosome assembly protein …: ADIDNKEQSELDQDLDDVEEVEEEETGEETKLKARQLTVQMMQNPQILAALQERLDGLVETPTGYIESLPRVVKRRVNALKNLQVKCAQIEAKFYEEVHDLERKYAVLYQPLFDKRFEIINAIYEPTEEECEWKPDEEDEISEELKEKAKIEDEKKDEEKEDPKGIPEFWLTVFKNVDLLSDMVQEHDEPILKHLKDIKVKFSDAGQPMSFVLEFHFEPNEYFTNEVLTKTYRMRSEPDDSDPFSFDGPEIMGCTGCQIDWKKGKNVTLKTIKKKQKHKGRGTVRTVTKTVSNDSFFNFFAPPEVPESGDLDDDAEAILAADFEIGHFLRERIIPRSVLYFTGEAIEDDDDDYDEEGEEADEEGEEEGDEENDPDYDPKKDQNPAEC
B2: MLXIP (protein, UniProt Q9HAP2 2-919, looked up)
MLX-interacting protein: AADVFMCSPRRPRSRGRQVLLKPQVSEDDDDSDTDEPSPPPASGAATPARAHASAAPPPPRAGPGREEPPRRQQIIHSGHFMVSSPHREHPPKKGYDFDTVNKQTCQTYSFGKTSSCHLSIDASLTKLFECMTLAYSGKLVSPKWKNFKGLKLQWRDKIRLNNAIWRAWYMQYLEKRKNPVCHFVTPLDGSVDVDEHRRPEAITTEGKYWKSRIEIVIREYHKWRTYFKKRLQQHKDEDLSSLVQDDDMLYWHKHGDGWKTPVPMEEDPLLDTDMLMSEFSDTLFSTLSSHQPVAWPNPREIAHLGNADMIQPGLIPLQPNLDFMDTFEPFQDLFSSSRSIFGSMLPASASAPVPDPNNPPAQESILPTTALPTVSLPDSLIAPPTAPSLAHMDEQGCEHTSRTEDPFIQPTDFGPSEPPLSVPQPFLPVFTMPLLSPSPAPPPISPVLPLVPPPATALNPPAPPTFHQPQKFAGVNKAPSVITHTASATLTHDAPATTFSQSQGLVITTHHPAPSAAPCGLALSPVTRPPQPRLTFVHPKPVSLTGGRPKQPHKIVPAPKPEPVSLVLKNARIAPAAFSGQPQAVIMTSGPLKREGMLASTVSQSNVVIAPAAIARAPGVPEFHSSILVTDLGHGTSSPPAPVSRLFPSTAQDPLGKGEQVPLHGGSPQVTVTGPSRDCPNSGQASPCASEQSPSPQSPQNNCSGKSDPKNVAALKNRQMKHISAEQKRRFNIKMCFDMLNSLISNNSKLTSHAITLQKTVEYITKLQQERGQMQEEARRLREEIEELNATIISCQQLLPATGVPVTRRQFDHMKDMFDEYVKTRTLQNWKFWIFSIIIKPLFESFKGMVSTSSLEELHRTALSWLDQHCSLPILRPMVLSTLRQLSTSTSILTDPAQLPEQASKAVTRIGKRLGES
B3: MAGED1 (protein, UniProt Q9Y5V3 1-778, looked up)
Melanoma-associated antigen D1: MAQKMDCGAGLLGFQAEASVEDSALLMQTLMEAIQISEAPPTNQATAAASPQSSQPPTANEMADIQVSAAAARPKSAFKVQNATTKGPNGVYDFSQAHNAKDVPNTQPKAAFKSQNATPKGPNAAYDFSQAATTGELAANKSEMAFKAQNATTKVGPNATYNFSQSLNANDLANSRPKTPFKAWNDTTKAPTADTQTQNVNQAKMATSQADIETDPGISEPDGATAQTSADGSQAQNLESRTIIRGKRTRKINNLNVEENSSGDQRRAPLAAGTWRSAPVPVTTQNPPGAPPNVLWQTPLAWQNPSGWQNQTARQTPPARQSPPARQTPPAWQNPVAWQNPVIWPNPVIWQNPVIWPNPIVWPGPVVWPNPLAWQNPPGWQTPPGWQTPPGWQGPPDWQGPPDWPLPPDWPLPPDWPLPTDWPLPPDWIPADWPIPPDWQNLRPSPNLRPSPNSRASQNPGAAQPRDVALLQERANKLVKYLMLKDYTKVPIKRSEMLRDIIREYTDVYPEIIERACFVLEKKFGIQLKEIDKEEHLYILISTPESLAGILGTTKDTPKLGLLLVILGVIFMNGNRASEAVLWEALRKMGLRPGVRHPLLGDLRKLLTYEFVKQKYLDYRRVPNSNPPEYEFLWGLRSYHETSKMKVLRFIAEVQKRDPRDWTAQFMEAADEALDALDAAAAEAEARAEARTRMGIGDEAVSGPWSWDDIEFELLTWDEEGDFGDPWSRIPFTFWARYHQNARSRFPQTFAGPIIGPGGTASANFAANFGAIGFFWVE
B4: LRRTM1 (protein, UniProt Q86UE6 35-522, looked up)
Leucine-rich repeat …: APSGCPQLCRCEGRLLYCEALNLTEAPHNLSGLLGLSLRYNSLSELRAGQFTGLMQLTWLYLDHNHICSVQGDAFQKLRRVKELTLSSNQITQLPNTTFRPMPNLRSVDLSYNKLQALAPDLFHGLRKLTTLHMRANAIQFVPVRIFQDCRSLKFLDIGYNQLKSLARNSFAGLFKLTELHLEHNDLVKVNFAHFPRLISLHSLCLRRNKVAIVVSSLDWVWNLEKMDLSGNEIEYMEPHVFETVPHLQSLQLDSNRLTYIEPRILNSWKSLTSITLAGNLWDCGRNVCALASWLNNFQGRYDGNLQCASPEYAQGEDVLDAVYAFHLCEDGAEPTSGHLLSAVTNRSDLGPPASSATTLADGGEGQHDGTFEPATVALPGGEHAENAVQIHKVVTGTMALIFSFLIVVLVLYVSWKCFPASLRQLRQCFVTQRRKQKQKQTMHQMAAMSAQEYYVDYKPNHIEGALVIINEYGSCTCHQQPARECEV
B5: LZTS2 (protein, UniProt Q9BRK4 1-669, looked up)
Leucine zipper putative tumor …: MAIVQTLPVPLEPAPEAATAPQAPVMGSVSSLISGRPCPGGPAPPRHHGPPGPTFFRQQDGLLRGGYEAQEPLCPAVPPRKAVPVTSFTYINEDFRTESPPSPSSDVEDAREQRAHNAHLRGPPPKLIPVSGKLEKNMEKILIRPTAFKPVLPKPRGAPSLPSFMGPRATGLSGSQGSLTQLFGGPASSSSSSSSSSAADKPLAFSGWASGCPSGTLSDSGRNSLSSLPTYSTGGAEPTTSSPGGHLPSHGSGRGALPGPARGVPTGPSHSDSGRSSSSKSTGSLGGRVAGGLLGSGTRASPDSSSCGERSPPPPPPPPSDEALLHCVLEGKLRDREAELQQLRDSLDENEATMCQAYEERQRHWQREREALREDCAAQAQRAQRAQQLLQLQVFQLQQEKRQLQDDFAQLLQEREQLERRCATLEREQRELGPRLEETKWEVCQKSGEISLLKQQLKESQAELVQKGSELVALRVALREARATLRVSEGRARGLQEAARARELELEACSQELQRHRQEAEQLREKAGQLDAEAAGLREPPVPPATADPFLLAESDEAKVQRAAAGVGGSLRAQVERLRVELQRERRRGEEQRDSFEGERLAWQAEKEQVIRYQKQLQHNYIQMYRRNRQLEQELQQLSLELEARELADLGLAEQAPCICLEEITATEI
B6: MORC4 (protein, UniProt Q8TE76 1-937, looked up)
MORC family CW-type zinc …: MLLYRGAPAGPGAPGCGLARPGGGPQAFGIRLSTMSPRYLQSNSSSHTRPFSAIAELLDNAVDPDVSARTVFIDVEEVKNKSCLTFTDDGCGMTPHKLHRMLSFGFTDKVIKKSQCPIGVFGNGFKSGSMRLGKDALVFTKNGGTLTVGLLSQTYLECVQAQAVIVPIVPFNQQNKKMIITEDSLPSLEAILNYSIFNRENDLLAQFDAIPGKKGTRVLIWNIRRNKNGKSELDFDTDQYDILVSDFDTEEKMTGGVTSELPETEYSLRAFCGILYMKPRMKIFLRQKKVTTQMIAKSLANVEYDTYKPTFTNKQVRITFGFSCKNSNQFGIMMYHNNRLIKSFEKVGCQVKPTRGEGVGVIGVIECNFLKPAYNKQDFEYTKEYRLTINALAQKLNAYWKEKTSQDNFETSTVARPIPKVPDQTWVQCDECLKWRKLPGKIDPSMLPARWFCYYNSHPKYRRCSVPEEQELTDEDLCLSKAKKQEQTVEEKKKMPMENENHQVFSNPPKILTVQEMAGLNNKTIGYEGIHSPSVLPSGGEESRSPSLQLKPLDSSVLQFSSKYKWILGEEPVEKRRRLQNEMTTPSLDYSMPAPYRRVEAPVAYPEGENSHDKSSSERSTPPYLFPEYPEASKNTGQNREVSILYPGAKDQRQGSLLPEELEDQMPRLVAEESNRGSTTINKEEVNKGPFVAVVGVAKGVRDSGAPIQLIPFNREELAERRKAVESWNPVPYSVASAAIPAAAIGEKARGYEESEGHNTPKLKNQRELEELKRTTEKLERVLAERNLFQQKVEELEQERNHWQSEFKKVQHELVIYSTQEAEGLYWSKKHMGYRQAEFQILKAELERTKEEKQELKEKLKETETHLEMLQKAQVSYRTPEGDDLERALAKLTRLRIHVSYLLTSVLPHLELREIGYDSEQVDGILYTVLEANHILD
B7: LRRCC1 (protein, UniProt Q9C099 1-1032, looked up)
Leucine-rich repeat and …: MEAAAAVVAAEAEVENEDGDSSCGDVCFMDKGLQSISELSLDSTLHAVNLHCNNISKIEAIDHIWNLQHLDLSSNQISRIEGLNTLTKLCTLNLSCNLITKVEGLEELINLTRLNVSYNHIDDLSGLIPLHGIKHKLRYIDLHSNRIDSIHHLLQCMVGLHFLTNLILEKDGDDNPVCRLPGYRAVILQTLPQLRILDCKNIFGEPVNLTEINSSQLQCLEGLLDNLVSSDSPLNISEDEIIDRMPVITAPIDELVPLEQFASTPSDAVLTSFMSVCQSSEPEKNNHENDLQNEIKLQKLDDQILQLLNETSNSIDNVLEKDPRPKRDTDITSESDYGNRKECNRKVPRRSKIPYDAKTIQTIKHHNKNYNSFVSCNRKMKPPYLKELYVSSSLANCPMLQESEKPKTEIIKVDQSHSEDNTYQSLVEQLDQEREKRWRAEQAENKLMDYIDELHKHANEKEDIHSLALLTTDRLKEIIFRERNSKGQLEVMVHKLQNEIKKLTVELMKAKDQQEDHLKHLRTLEKTLEKMERQKRQQQAAQIRLIQEVELKASAADREIYLLRTSLHREREQAQQLHQLLALKEQEHRKELETREFFTDADFQDALAKEIAKEEKKHEQMIKEYQEKIDVLSQQYMDLENEFRIALTVEARRFQDVKDGFENVATELAKSKHALIWAQRKENESSSLIKDLTCMVKEQKTKLAEVSKLKQETAANLQNQINTLEILIEDDKQKSIQIELLKHEKVQLISELAAKESLIFGLRTERKVWGHELAQQGSSLAQNRGKLEAQIESLSRENECLRKTNESDSDALRIKCKIIDDQTETIRKLKDCLQEKDEHIKRLQEKITEIEKCTQEQLDEKSSQLDEVLEKLERHNERKEKLKQQLKGKEVELEEIRKAYSTLNRKWHDKGELLCHLETQVKEVKEKFENKEKKLKAERDKSIELQKNAMEKLHSMDDAFKRQVDAIVEAHQAEIAQLANEKQKCIDSANLKVHQIEKEMRELLEETCKNKKTMEAKIKQLAFALNEIQQDM

Legend:
HCV proteins = target: T1, HCV proteins (Hepatitis C virus genotype 1b, UniProt Q9WMX2); assay: Validation by Y2H pairwise matrices; format: binding;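 further: yeast two-hybrid pairwise tests of interactions first found in Y2H screens of HCV bait proteins against human cDNA libraries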
T1 construct: expressed in transfected cells

[1] = tested on: HCV ORFs (Gal4-DB fusions); format: binding, HCV genotype 1b, isolate con1; settings: human protein listed by gene symbol; the value names the HCV protein it interacts with
[2] = target: T2, HCV ORFs (Gal4-DB fusions) (Hepatitis C virus genotype 1b, UniProt Q9WMX2); format: binding, HCV genotype 1b, isolate con1; settings: human protein as prey
T2 construct: expressed in transfected cells; host or cells: Saccharomyces cerevisiae MAV203 (IMAP1) / AH109 (IMAP2)

[3] = validation of interaction with HCV protein NS3
[4] = validation of interaction with HCV protein CORE
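Wherever IMAP Y2H IMAP1 (number of IST) is given: yeast two-hybrid screens using HCV genotype 1b proteins fused to Gal4-DB as baits against prey cDNA libraries from human spleen and foetal brain, IMAP1 via transformation and IMAP2 via mating.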
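Wherever IMAP Y2H IMAP2 (number of IST) is given: yeast two-hybrid screens using HCV genotype 1b proteins fused to Gal4-DB as baits against prey cDNA libraries from human spleen and foetal brain, IMAP1 via transformation and IMAP2 via mating.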
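Wherever Interaction with viral protein is given: yeast two-hybrid screens using HCV genotype 1b proteins fused to Gal4-DB as baits against prey cDNA libraries from human spleen and foetal brain, IMAP1 via transformation and IMAP2 via mating.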

| Molecule | Y2H matrices (HCV proteins; interaction with HCV protein NS5A) | Interaction with viral protein [1] | IMAP Y2H IMAP2 (number of IST) ([2]; HCV protein NS3 as bait) | IMAP Y2H IMAP1 (number of IST) ([2]; HCV protein NS5A as bait) | IMAP Y2H IMAP2 (number of IST) ([2]; HCV protein NS5A as bait) | Y2H matrices (HCV proteins; [3]) | IMAP Y2H IMAP1 (number of IST) ([2]; HCV protein NS3 as bait) | Y2H matrices (HCV proteins; [4]) | IMAP Y2H IMAP1 (number of IST) ([2]; HCV protein CORE as bait) | IMAP Y2H IMAP2 (number of IST) ([2]; HCV protein CORE as bait) |
| --- | --- | --- | --- | --- | --- | --- | --- | --- | --- | --- |
| B1 | + | NS3 and NS5A | 1 | 1 | 31 | – | – | – | – | – |
| B2 | – | NS3 | – | – | – | + | 1 | – | – | – |
| B3 | – | NS3 and CORE | – | – | – | + | 1 | + | 1 | 2 |
| B4 | – | CORE | – | – | – | – | – | + | 1 | – |
| B5 | – | NS3 | – | – | – | + | 8 | – | – | – |
| B6 | – | NS3 | – | – | – | + | 1 | – | – | – |
| B7 | – | NS3 | – | – | – | + | 1 | – | – | – |
